The text below walks through data of the RNAGym collection of RNA variant scans (doi:10.1021/acssynbio.7b00057).

The labels stand for the following.
B1: Pistol ribozyme (parent)
chain: GGGUCGUUGUUCCAUAAUCGCGUGGAUAUGGCACGCAAGUUUCUACCGGGCACCGUAAAUGUCCGACUGGAGCCGUUCGGGCGGCUAUAAACAGACCUCAGGCCCGAAGCGUGGCGGCACCUGCCGCCGGUGGUAAAAAAGAUCGGAAGAGCACACGUCU

The variants in this data set derive from B1. Put plainly: aptazyme ON/OFF ratio, guanine; higher = stronger switching; co-transcriptional cleavage with and without guanine.
Turning to U7C U8C G9A U10G U11C C12G C13U, the “aptazyme ON/OFF ratio” value worked out at 1.19.
In the case of U7C U8C G9A U10G U11C C12G C13G it was 1.26; in that of U7C U8C C13A, 1.21; in that of U7C U8C C13U, 1.56.
The result for U7C U8C C13G reads 1.17; that for U7C U8C C12G C13G, 1.14; that for U7C U8C C12G C13U, 1.15.
In the case of U7C U8C C12G C13A it was 1.12; in that of U7C U8C G9A U10G U11C C12U C13A, 1.29; in that of U7C U8C G9A U10G U11C C12U C13G, 1.18.
With U7C U8C G9A U10G U11C C12U C13U, the “aptazyme ON/OFF ratio” value turned out to be 1.26.
For U7C U8C G9A U10C C12U C13A, the “aptazyme ON/OFF ratio” value came out at 1.22.
The result for U7C U8C G9A U10C C12U C13G reads 1.26; that for U7C U8C G9A U10C C12U C13U, 1.32.
The result for U7C U8A U11A C13A reads 1.15; that for U7C U8A U11A C13U, 1.12; that for U7C U8A U11A C13G, 1.08.
On to U7C U8C G9A U10C U11A C12U, for which the “aptazyme ON/OFF ratio” value came to 1.22.
The result for U7C U8C G9A U10C U11A C12G reads 1.23; that for U7C U8C G9A U10C U11A C12A, 1.51.
For U7C U8C G9A U10G C12G C13A, the “aptazyme ON/OFF ratio” value was found to be 1.2.
On to U7C U8C G9A U10G C12G C13U, for which the “aptazyme ON/OFF ratio” value came to 1.16.
As for U7C U8C G9A U10G C12G C13G, the “aptazyme ON/OFF ratio” value came out at 1.16.
In the case of U7C U8A U10G U11C C13G it was 1.08; in that of U7C U8A U10G U11C C13U, 1.05.
The result for U7C U8A U10G U11C C13A reads 1.08; that for U7C U8C G9A U10C U11A C12A C13A, 1.18.
In the case of U7C U8C G9A U10C U11A C12A C13U it was 1.18.
Regarding U7C U8C G9A U10C U11A C12A C13G, the “aptazyme ON/OFF ratio” value is 1.4.
On to U7C U8C G9A U10A U11A C12G, for which the “aptazyme ON/OFF ratio” value is 1.33.
Take U7C U8C G9A U10A U11A C12A: the “aptazyme ON/OFF ratio” value was 1.5.
The result for U7C U8C G9A U10A U11A C12U reads 1.41; that for U7C U8C G9A U10C U11C C12U, 1.41.
In the case of U7C U8C G9A U10C U11C C12G it was 1.19; in that of U7C U8C G9A U10C U11C C12A, 1.25; in that of U7C U8C G9A U10C U11G C13G, 1.15.
In the case of U7C U8C G9A U10C U11G C13A it was 1.11; in that of U7C U8C G9A U10C U11G C13U, 1.32.
For the variant U7C U8A U10G U11C C12U C13G, the “aptazyme ON/OFF ratio” value amounted to 1.23.
The result for U7C U8A U10G U11C C12U C13U reads 1.41.
Regarding U7C U8A U10G U11C C12U C13A, the “aptazyme ON/OFF ratio” value is 1.35.
The result for U7C U8C G9A U10G C12U C13U reads 1.42.
As to U7C U8C G9A U10G C12U C13A, the “aptazyme ON/OFF ratio” value worked out at 1.15.
Consider U7C U8C G9A U10G C12U C13G, for which the “aptazyme ON/OFF ratio” value came to 1.16.
In the case of U7C U8C G9A U10A U11G C12A it was 1.08; in that of U7C U8C G9A U10A U11G C12G, 1.25; in that of U7C U8C G9A U10A U11G C12U, 1.35.
In the case of U7C U8A U11A C12G C13G it was 1.16.
The result for U7C U8A U11A C12G C13A reads 1.09.
Turning to U7C U8A U11A C12G C13U, the “aptazyme ON/OFF ratio” value was found to be 1.12.
U7C U8C G9A U11C C13A: the “aptazyme ON/OFF ratio” value came to 1.22.
On to U7C U8C G9A U11C C13G, for which the “aptazyme ON/OFF ratio” value is 1.05.
In the case of U7C U8A U11G C12G C13A it was 1.1.
Take U7C U8A U11G C12G C13U: the “aptazyme ON/OFF ratio” value worked out at 1.13.
The result for U7C U8A U11G C12G C13G reads 1.13; that for U7C U8A U10G U11G, 1.24; that for U7C U8C C12A C13U, 1.34.
With U7C U8C C12A C13G, the “aptazyme ON/OFF ratio” value was found to be 1.1.
For the variant U7C U8C C12A C13A, the “aptazyme ON/OFF ratio” value turned out to be 1.23.
The result for U7C U8C G9A U10C U11G C12U C13A reads 1.45; that for U7C U8C G9A U10C U11G C12U C13G, 1.33.
U7C U8C G9A U10C U11G C12U C13U: the “aptazyme ON/OFF ratio” value was 1.23.
Consider U7C U8C G9A U10C U11C C12G C13A, for which the “aptazyme ON/OFF ratio” value is 1.5.
In the case of U7C U8C G9A U10C U11C C12G C13U it was 1.29; in that of U7C U8C G9A U10C U11C C12G C13G, 1.24.
In the case of U7C U8C G9A U10A U11G it was 1.55.
The result for U7C U8C G9A U10A U11A reads 3.49.
Take U7C U8C G9A U10A U11C: the “aptazyme ON/OFF ratio” value is 1.21.
On to U7C U8A U11C C12A C13U, for which the “aptazyme ON/OFF ratio” value was 1.25.
Take U7C U8A U11C C12A C13A: the “aptazyme ON/OFF ratio” value was 1.29.
Turning to U7C U8A U11C C12A C13G, the “aptazyme ON/OFF ratio” value was 1.18.
Turning to U7C U8C G9A U10C U11A C12G C13A, the “aptazyme ON/OFF ratio” value was 1.26.
For U7C U8C G9A U10C U11A C12G C13U, the “aptazyme ON/OFF ratio” value came to 1.13.
The result for U7C U8C G9A U10C U11A C12G C13G reads 1.19.
In the case of U7C U8C G9A C12U C13U it was 1.26.
The result for U7C U8C G9A C12U C13A reads 1.27.
Regarding U7C U8C G9A C12U C13G, the “aptazyme ON/OFF ratio” value came to 1.27.
In the case of U7C U8C G9A U10A U11G C13A it was 1.21; in that of U7C U8C G9A U10A U11G C13G, 1.19; in that of U7C U8C G9A U10A U11G C13U, 1.21.
For U7C U8A U11G, the “aptazyme ON/OFF ratio” value is 1.18.
The result for U7C U8A U11C reads 1.1.
In the case of U7C U8A U11A it was 1.13.
The result for U7C U8C G9A reads 1.59.
